Experimental data as given in the DeepSol protein solubility set.

Assay: soluble on expression in E. coli; label from the status in PepcDB or PDB records

Sequence	soluble on expression in E. coli
MSTEKWRTGLQIQQLHTPTDNVDRSAMKKISSMFSALQEKFQRAKAGAPTPAAVAPPAGRESHCGLRFFEYLLVVSLRKRSSGVGYEPQVTYQFPKREVMGRLQREQEEKSMKAAHLFCFPEGVHWAPVTEYSSETFSFVLTEVDGSRRNGYCRRLLPAGKGARLPEAYCIISHVACFGLFSKIFDEVEKRRQISTAMIYPFMQSLREAPLPSPGSTVSISSFIPDAGTQIIRLTRPADSWLEHVDFTALFSRLNDEELLLVFTAAVLERRIIFISEELSTLSQVLHAVAALLYPFVWQHTFISIVPSVLIDVCEAPTPYLLGVQKSMMGLITDHSDVMIVDLSTGAPTKFITRIGDEESLLPLKLKEELLSGLSARTHHASTEQLNRLVSEAFLSVFVKTVGHFSEHIKRGGKPRQFQKKSFLKAVENKTYSSFVKLFIQTQMFDLFIQEEETQSNPNGFFHRKVKEHRDRMKQEKAKAGWVRGVVI	soluble
MSTFGEHRPYVFLPPADLDRIAAQWSKDSARPDAQGRGIAIFSAITGSYDSINHHEHLIPGADYLLFSDAPKPRYVYQPRQAPWFDCDTVRAARFIKTHPHMLLGGYRIAVWIDGNILIRGDLLPLVQRFEESGLAFGAVPHPLRQSVYAEAVECMKRGKDDEATIRRQMQRYRREEFDCEDLIESNLLMFRLGHPSLAPLLDTWWAQIESGSRRDQLSLNYALHKTGVEWLALTQRPHSVRDHPALALMHHRSQFNPLEHHHHHH	soluble
MSTINQKLSDNFREAWQKQNLEVNLEEVIEKWELTKYVKDNFICPEVNISTLPSYSFVLKFMFKLKKPYISLDENDFYIIDNPLRKDKVLNLPFVAPSSWKGSLRNSLWQLNYDYENDKIRRIFGNERSPNSEDIVLRMGRLYFFPTFFSKKSLEIINPHNRESRVGTVPILMESVPQDTTGYFTLIYVPFDLIGCEENEIKKQVACDIQLISKGLKSMFTYYGFGAKTSSGYGTSYEDITDGTITLRVKGIEVSLKDIDEVKPPAEGYSKYLNEDGSVKEEFKGSGKYGLLSDKEYYKIKNQLEGSRNEYRDFRQWYGLNGEKWQKHLNSFKYPKPEWPTWNFGNFFQLIEVSKNIATSLELSGAHNECMAGDPLEHHHHHH	not soluble
MSTMKDEIEKVPASQYKGQDFQPLAEKSAIAHAKKYREEYEKLGEQFFKDNFSLNVKATNVVGSGDGAEVYVHCDDHDIVFNASIPFDMESIHEEGSMRSNDNGDTMSMMVGTVLSGFEYRANKEKMDNLEKYLKDKEDKYHYTGFTDEAITKTQNIGYQNNYFYITTSSTKLRDYRKHFEPLIKESDDDFKKHMKQLKSKKDTYINTEITTTLFSTLDEYDEKIIRKNTLSMAKEMRKEPSIPHNFTFHLLFSNNKLKINDPNISNNQINEYRVFDHDGFKNLEHHHHHH	soluble
MSTMQTELIIVSEYCQKCHIEPSFIEMLEEGGLINVRTEAGKHYLLVSELPNVERYSRMYYDLSINMEGIDAIHHMLERMDDMRREITSLRKQLLLFREREIEEADW	not soluble
MSTPFKMERGVKYRDAAKTSIIPVKNIDPNQDLLKKPEWMKIKLPASSAKIESIKNGMRRHGLHSVCEEASCPNLHECFNHGTATFMILGAICTRRCPFCDVAHGKPLPPDPEEPQKLAETIQDMKLKYVVITSVDRDDLPDRGAGHFSECVKAVRELNPNIKIEILVPDFRGRITQALEKLKDNPPDVFNHNLENVPRLYKEIRPGADYEWSLKLLREFKEIFPNIPTKSGLMVGLGETNEEILQVMQDLRDNGVTMLTLGQYLQPSRHHLPVARYVPPTEFDEFRDKANEMGFEHAACGPFVRSSYHADLQASGGLVKLEHHHHHH	not soluble
MSTQGEIRVGPSHQAKLPDLQPFPSPDGDTVTQHEELVWMPGVNDCDLLMYLRAARSMAAFAGMCDGGSTEDGCVAASRDDTTLNALNTLHESGYDAGKALQRLVKKPVPKLIEKCWTEDEVKRFVKGLRQYGKNFFRIRKELLPNKETGELITFYYYWKKTPEAALEHHHHHH	soluble
MSTQNYPATGRLAEPEYGTLLVKNVKIYGEGEPVNVLITDGVITDTHAGDVKADREVDGQGGVLLPGLVDIHVHLREPGREDTETIATGSAAAAKGGFTAVFTMANTMPVMDQPIIAESVWHKGQDIGLCDVHPVGSITKGLEGKEITEFGMMAHSQAKVRMFSDDGKCVDNPLIMRRAVEYARGTDVLLAQHCEDPRLTDGAVAHEGAMAAKLGLGGWPRVAEESIVARDAILARDYGGRMHICHASTQGTVELVKWAKEHEIPLTAEVTPHHLLLTDERLATYDGVNRVNPPLRENSDILALRDALLNGTIDCVATDHAPHGSEDKCCEFEHAKPGMLGLETSLAVVAAVFVETGLADWRFVAKVMSERPAEIVKLPGHGRPIAVGEPANLTIVDPGAKWTASGEKMASKATNTPYEGMEFNARVTTTILRGRLTCVDGEPTQARA	not soluble
MSTSSNKSDAIKQTRAFSILLMGVDTGSSERASKWEGNSDSMILVTVNPKTKKTTMTSLERDTLTTLSGPKNNEMNGVEAKLNAAYAAGGAQMAIMTVQDLLNITIDNYVQINMQGLIDLVNAVGGITVTNEFDFPISIAENEPEYQATVAPGTHKINGEQALVYARMRYDDPEGDYGRQKRQREVIQKVLKKILALDSISSYRKILSAVSSNMQTNIEISSRTIPSLLGYRDALRTIKTYQLKGEDATLSDGGSYQIVTSNHLLEIQNRIRTELGLHKVNQLKTNATVYENLYGSTKSQTVNNNYDSSGQAPSYSDSHSSYANYSSGVDTGQSASTDQDSTASSHRPATPSSSSDALAADESSSSGSGSLVPPANINPQTLEHHHHHH	soluble
MSTTHNSLPASSDKHHDGHGEASLYHDSHGHAWSGNPNYTLTQLIPELRINLGSSLDIGSGEGADAAWLASLGWKAVGLEPSGVAVERSRELSSNATFIQGKVPQDLDRCGGPFDLVTGFYIPIAGEDAWRAIARQVADGGYLIYVHHNLDELRAKGHPLLGRDDLLMPFDAADLAPSGAWEIVVHETRHREIVGGHGHHHHLDDVLVLKRRKK	not soluble
MSTVGGIEQLIPDSVSTSFIETVNGSHQFTIQGYSLAKGMSPGKFIQSDIFSVGGYDWAIYFYPDGKNPEDQSSYISLFIALASDSNDIRALFELTLMDQSGKGKHKVHSHFDRALEGGPYTLKYKGSMWGYKRFFKRSALETSDYLKDDCLVINCTVGVVRARLEGPKQYGIVLPLSNMGQGLKDLLDSEVGCDIAFQVGDETYKAHKLILAARSPVFRAQFFGPIGNNNVDRIVIDDIEPSIFKAMLSFIYTDVLPNVHEITGSTSASSFTNMIQHLLAAADLYDLARLKILCEVLLCEKLDVDNVATTLALAEQHQFLQLKAFCLEFVASPANLGAVMKSEGFKHLKQSCPTLLSELLNTVAAADKSSTSGQSNKKRSASSVLGCDTTNVRQLRRRTRKEVRAVS	not soluble
MSVDEKPIKIKVEKVSKIFGKQTKKAVQMLANGKAKKEILKATGSTVGVNQADFEVYDGEIFVIMGLSGSGKSTLVRMLNRLIEPTAGNIYIDGDMITNMSKDQLREVRRKKISMVFQKFALFPHRTILENTEYGLELQGVDKQERQQKALESLKLVGLEGFEHQYPDQLSGGMQQRVGLARALTNDPDILLMDEAFSALDPLIRKDMQDELLDLHDNVGKTIIFITHDLDEALRIGDRIVLMKDGNIVQIGTPEEILMNPSNEYVEKFVEDVDLSKVLTAGHIMKRAETVRIDKGPRVALTLMKNLGISSIYAVDKQKKLLGVIYASDAKKAAESDLSLQDILNTEFTTVPENTYLTEIFDVVSDANIPIAVVDEKQRMKGIVVRGALIGALAGNNEYINAEGT	not soluble
MSVEFYNQNAQQFFSSTVEVDSTSLLDQFVPYLPQGGLVLDAGCGSGRDSKRFLDMGYQIDAFDASAPLAALAEELLNQSVTVTTFENFTSSKRYDGIWACASLLHVTRESLPETFAHLAKMLKCGGAFYCSFKYGQDEVERDGRRFTNCNEVLLNQLLTSSPLAIDKLWVTQDLRAGREHEQWLNAILIKRLEHHHHHH	soluble
MSVEKLIVDHMETWTSALQTRSTAGRGSSGKIDLYGIKKLRELILELAVRGKLVPQDPNDEPASDLLKRIAAEKAELVKQGKIKKQKPLPEISEEEKPFELPEGWEWVHLPDIYCSISESSRKIKSSEILPEGKYPVIEQSQEFISGYCNNECLLIKLNNPVIVFGDHTRNIKFIDFDFVVGADGVKILSPILICERFFFWQLRSFKLDVRGYARHFKVLNSCLFALPPIAEQERIVEKVSSLMSLCDQLEQQSLTSLDAHQQLVETLLGTLTDSQNTAELAENWARISEHFDTLFTTEASVDALKQTILQLAVMGKLVPQDPNDEPASELLKRIAQEKAQLVKEGKIQKPLPPISDEEKPFELPEGWEWCRIGNIVNIKSELVSPKDYLNLYQVAPDIIEKGTGRVISKRTVKESGVKGPNSRFYKGQIVYSKIRPSLSKVFLAEYNGLCSADMYPLDCYINPNYLLKYILSIPFLMQVKKAENRIKMPKLNSDSFYNIIVAIPPYNEQQAIFDKINSIEAVCNGLISYIGIYHKTQLHLADALTDAAIN	not soluble
MSVIRKEDGAGGKYMVELLKKHVFPKIASRAGEIALEDMEDSSDFCDDFAFTTDSYVVSPPIFRGGSIGSLSVCGTSNDLAVMGAKPEFMSLALVIQDGFPLGDFRRIMDDIRDSVELVNLSIITGDTKVVESNVGIIVNTAGIGRRSEELERNLEVLRELRDYPYRWVRDKGLKEGDAIIVSGSIAEHAAVIMAERMGFEVEFKSDVYPVWLFVREALRRGGVTAMKDPTRGGIAAALNEMAEKSGVGIKIFEERIPLKDEVRGLCELLGLDPLTMANEGKVVFGVHPEMADEVLKALHKAGQKEAEIIGYATKEFAEVVLETAVGTTRVVPQPISDPIPRVC	not soluble
MSVLEVKGLTKVYQSKGSVATTALNDINFKIEEGEFVGIMGPSGSGKTTLLNLLATIDKQTSGHVLVNGEEINQMRAAKLAEFRRTHLGFIFQDFNLLDTLSIKENIILPLVMAKKSVNEIDAKVLEIAKFLNIEEILNKKVYEVSGGQQQRAAAARAIIHEPTLILADEPTGNLDSKSAKSLMSALQDLHEQKRVTIAMVTHDPVAASYCERILFIRDGEIFSEIHKGRTKQAFFQEILDVLAMLGGEYHELSPARA	not soluble
MSVSNTQFNPFGNHETNLKELKLQLEQVTSKSVKQIEDVKGLTVTLERLTEIAKNIPETAIQSLISEIVASFPKCVSVLGEKKPEDLRTASFISLLRRLNQFIQTIADRVTKPFDSDVLKEWAPIFVSLLTGKHSALKENGALLWKKTFGTVKNNLICPEDLRGILDSMPKRYAISVPQSTSSKTDGYFSDDEAMDGLPTSSAAGAGNNFKFPKIKTEVIESQSSFQFSQQPVADEVAEKLLKEQKLKAEETQSPKTSSTETSRRRTSRMALIDEDSCDFVAILTSPATRKNRLTDRQKEKLEEVSGPRTTINYMDEESQNGFVKTEQFKKALTAMNFEVEDESVSAPTSKNSENPEILPIDEIPTVHVESAKSDKTPEPVKKTNKRRRLFHDQPVSAFATESSRKPEIANNDLGEILEKLPEHASTKSPEQKRGRKDSAISCETSDDISDSMKSNDSRTIITQQEHAVEQKSRKKPGRPKNSRNRSETTRKSGRLSAIQNNACVTSESSMSNETGDVEKTDDKKESVQNIPEQEAAEKKEVDTTISDKRLSDTEEAIEENIVKSPPKTPRTPSILRVGKRMSTSSSPMTERKRNRVHFGEESLPVDVVSSPLTPRRRPLAEAAKNPFVEATVAASNSNLSDIQSSTNDSSFYPTLADCRDKIDRILPNLVTLCMKTVLDSAKRSLSAVGVKTVGDFASLSKSDIEKFTWIKGRVVGARNVLMQYEKTRNAERREEIVDGSEEKPMDVADAIPPEIEAVSPSSKDSQSVPMETKDNSPPANEVIAQELPKASPISNTPSVESTQPALNVQKTPEASQSPASPISSNTGSSTFTVDPTPVQKDLSVVLSRKNLAPIFCGGLKNFKKEQLCPQKQCEKAKDAEKSFVEDGRVLHRICVSLSNAHTQNHWPSENSSKLLSNINKASILFKNLVQTRGAGDWDDTDLENDDLSTAESDVATDVDVLVAVYKRFSRHHTSPMANNLPWRSVMECVNEAACLLESIFLTRAPNKGSM	not soluble
